Results reported in patent US20190338009A1 (ZEALAND PHARMA A S, published 2019).
Square brackets hold non-standard residues; d marks the D form. Aib = CC(C)(N)C(=O)O

T1: human GLP-2 receptor (hGLP2-R) (human, UniProt O95838 1-553)
T1 sequence (looked up): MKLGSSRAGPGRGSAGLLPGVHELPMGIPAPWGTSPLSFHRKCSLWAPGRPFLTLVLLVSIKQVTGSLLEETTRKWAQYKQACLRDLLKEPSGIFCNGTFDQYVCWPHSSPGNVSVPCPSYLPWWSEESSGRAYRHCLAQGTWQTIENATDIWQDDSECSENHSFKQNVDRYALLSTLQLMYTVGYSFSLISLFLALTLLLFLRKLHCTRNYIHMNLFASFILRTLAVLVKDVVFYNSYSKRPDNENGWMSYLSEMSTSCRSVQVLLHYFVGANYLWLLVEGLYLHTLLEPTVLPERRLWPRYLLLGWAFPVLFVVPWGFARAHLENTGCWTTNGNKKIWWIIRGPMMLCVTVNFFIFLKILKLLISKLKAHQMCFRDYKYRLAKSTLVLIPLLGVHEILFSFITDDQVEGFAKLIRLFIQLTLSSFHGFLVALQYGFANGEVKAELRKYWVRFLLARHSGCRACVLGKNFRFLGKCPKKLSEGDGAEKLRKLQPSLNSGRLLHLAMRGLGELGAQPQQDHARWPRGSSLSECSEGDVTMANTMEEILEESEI

B1: Compound 22 (peptide)
peptide: H-H[Aib]EGSFTSELATILDEQAARDFIAWLHAHKITD-OH
SMILES: CC[C@H](C)[C@H](NC(=O)[C@H](Cc1ccccc1)NC(=O)[C@H](CC(=O)O)NC(=O)[C@H](CCCNC(=N)N)NC(=O)[C@H](C)NC(=O)[C@H](C)NC(=O)[C@H](CCC(N)=O)NC(=O)[C@H](CCC(=O)O)NC(=O)[C@H](CC(=O)O)NC(=O)[C@H](CC(C)C)NC(=O)[C@@H](NC(=O)[C@@H](NC(=O)[C@H](C)NC(=O)[C@H](CC(C)C)NC(=O)[C@H](CCC(=O)O)NC(=O)[C@H](CO)NC(=O)[C@@H](NC(=O)[C@H](Cc1ccccc1)NC(=O)[C@H](CO)NC(=O)CNC(=O)[C@H](CCC(=O)O)NC(=O)C(C)(C)NC(=O)[C@@H](N)Cc1c[nH]cn1)[C@@H](C)O)[C@@H](C)O)[C@@H](C)CC)C(=O)N[C@@H](C)C(=O)N[C@@H](Cc1c[nH]c2ccccc12)C(=O)N[C@@H](CC(C)C)C(=O)N[C@@H](Cc1c[nH]cn1)C(=O)N[C@@H](C)C(=O)N[C@@H](Cc1c[nH]cn1)C(=O)N[C@@H](CCCCN)C(=O)N[C@H](C(=O)N[C@H](C(=O)N[C@@H](CC(=O)O)C(=O)O)[C@@H](C)O)[C@@H](C)CC
B2: Compound 18 (peptide)
peptide: H-H[Aib]EGTFTSELATILDEQAARDFIAWLISHKITD-OH
SMILES: CC[C@H](C)[C@H](NC(=O)[C@H](Cc1ccccc1)NC(=O)[C@H](CC(=O)O)NC(=O)[C@H](CCCNC(=N)N)NC(=O)[C@H](C)NC(=O)[C@H](C)NC(=O)[C@H](CCC(N)=O)NC(=O)[C@H](CCC(=O)O)NC(=O)[C@H](CC(=O)O)NC(=O)[C@H](CC(C)C)NC(=O)[C@@H](NC(=O)[C@@H](NC(=O)[C@H](C)NC(=O)[C@H](CC(C)C)NC(=O)[C@H](CCC(=O)O)NC(=O)[C@H](CO)NC(=O)[C@@H](NC(=O)[C@H](Cc1ccccc1)NC(=O)[C@@H](NC(=O)CNC(=O)[C@H](CCC(=O)O)NC(=O)C(C)(C)NC(=O)[C@@H](N)Cc1c[nH]cn1)[C@@H](C)O)[C@@H](C)O)[C@@H](C)O)[C@@H](C)CC)C(=O)N[C@@H](C)C(=O)N[C@@H](Cc1c[nH]c2ccccc12)C(=O)N[C@@H](CC(C)C)C(=O)N[C@H](C(=O)N[C@@H](CO)C(=O)N[C@@H](Cc1c[nH]cn1)C(=O)N[C@@H](CCCCN)C(=O)N[C@H](C(=O)N[C@H](C(=O)N[C@@H](CC(=O)O)C(=O)O)[C@@H](C)O)[C@@H](C)CC)[C@@H](C)CC
B3: Compound 23 (peptide)
peptide: H-H[Aib]EGSFTSELATILDEQAARDFIAWLYEHKITD-OH
SMILES: CC[C@H](C)[C@H](NC(=O)[C@H](Cc1ccccc1)NC(=O)[C@H](CC(=O)O)NC(=O)[C@H](CCCNC(=N)N)NC(=O)[C@H](C)NC(=O)[C@H](C)NC(=O)[C@H](CCC(N)=O)NC(=O)[C@H](CCC(=O)O)NC(=O)[C@H](CC(=O)O)NC(=O)[C@H](CC(C)C)NC(=O)[C@@H](NC(=O)[C@@H](NC(=O)[C@H](C)NC(=O)[C@H](CC(C)C)NC(=O)[C@H](CCC(=O)O)NC(=O)[C@H](CO)NC(=O)[C@@H](NC(=O)[C@H](Cc1ccccc1)NC(=O)[C@H](CO)NC(=O)CNC(=O)[C@H](CCC(=O)O)NC(=O)C(C)(C)NC(=O)[C@@H](N)Cc1c[nH]cn1)[C@@H](C)O)[C@@H](C)O)[C@@H](C)CC)C(=O)N[C@@H](C)C(=O)N[C@@H](Cc1c[nH]c2ccccc12)C(=O)N[C@@H](CC(C)C)C(=O)N[C@@H](Cc1ccc(O)cc1)C(=O)N[C@@H](CCC(=O)O)C(=O)N[C@@H](Cc1c[nH]cn1)C(=O)N[C@@H](CCCCN)C(=O)N[C@H](C(=O)N[C@H](C(=O)N[C@@H](CC(=O)O)C(=O)O)[C@@H](C)O)[C@@H](C)CC
B4: Compound 21 (peptide)
peptide: H-H[Aib]EGTFTSELATILDEQAARDFIAWLHQHKITD-OH
SMILES: CC[C@H](C)[C@H](NC(=O)[C@H](Cc1ccccc1)NC(=O)[C@H](CC(=O)O)NC(=O)[C@H](CCCNC(=N)N)NC(=O)[C@H](C)NC(=O)[C@H](C)NC(=O)[C@H](CCC(N)=O)NC(=O)[C@H](CCC(=O)O)NC(=O)[C@H](CC(=O)O)NC(=O)[C@H](CC(C)C)NC(=O)[C@@H](NC(=O)[C@@H](NC(=O)[C@H](C)NC(=O)[C@H](CC(C)C)NC(=O)[C@H](CCC(=O)O)NC(=O)[C@H](CO)NC(=O)[C@@H](NC(=O)[C@H](Cc1ccccc1)NC(=O)[C@@H](NC(=O)CNC(=O)[C@H](CCC(=O)O)NC(=O)C(C)(C)NC(=O)[C@@H](N)Cc1c[nH]cn1)[C@@H](C)O)[C@@H](C)O)[C@@H](C)O)[C@@H](C)CC)C(=O)N[C@@H](C)C(=O)N[C@@H](Cc1c[nH]c2ccccc12)C(=O)N[C@@H](CC(C)C)C(=O)N[C@@H](Cc1c[nH]cn1)C(=O)N[C@@H](CCC(N)=O)C(=O)N[C@@H](Cc1c[nH]cn1)C(=O)N[C@@H](CCCCN)C(=O)N[C@H](C(=O)N[C@H](C(=O)N[C@@H](CC(=O)O)C(=O)O)[C@@H](C)O)[C@@H](C)CC
B5: Compound 17 (peptide)
peptide: H-H[Aib]EGTFTSELATILDEQAARDFIAWLIRHKITD-OH
SMILES: CC[C@H](C)[C@H](NC(=O)[C@H](Cc1ccccc1)NC(=O)[C@H](CC(=O)O)NC(=O)[C@H](CCCNC(=N)N)NC(=O)[C@H](C)NC(=O)[C@H](C)NC(=O)[C@H](CCC(N)=O)NC(=O)[C@H](CCC(=O)O)NC(=O)[C@H](CC(=O)O)NC(=O)[C@H](CC(C)C)NC(=O)[C@@H](NC(=O)[C@@H](NC(=O)[C@H](C)NC(=O)[C@H](CC(C)C)NC(=O)[C@H](CCC(=O)O)NC(=O)[C@H](CO)NC(=O)[C@@H](NC(=O)[C@H](Cc1ccccc1)NC(=O)[C@@H](NC(=O)CNC(=O)[C@H](CCC(=O)O)NC(=O)C(C)(C)NC(=O)[C@@H](N)Cc1c[nH]cn1)[C@@H](C)O)[C@@H](C)O)[C@@H](C)O)[C@@H](C)CC)C(=O)N[C@@H](C)C(=O)N[C@@H](Cc1c[nH]c2ccccc12)C(=O)N[C@@H](CC(C)C)C(=O)N[C@H](C(=O)N[C@@H](CCCNC(=N)N)C(=O)N[C@@H](Cc1c[nH]cn1)C(=O)N[C@@H](CCCCN)C(=O)N[C@H](C(=O)N[C@H](C(=O)N[C@@H](CC(=O)O)C(=O)O)[C@@H](C)O)[C@@H](C)CC)[C@@H](C)CC
B6: Compound 19 (peptide)
peptide: H-H[Aib]EGTFTSELATILDEQAARDFIAWLIAQKITD-OH
SMILES: CC[C@H](C)[C@H](NC(=O)[C@H](CC(C)C)NC(=O)[C@H](Cc1c[nH]c2ccccc12)NC(=O)[C@H](C)NC(=O)[C@@H](NC(=O)[C@H](Cc1ccccc1)NC(=O)[C@H](CC(=O)O)NC(=O)[C@H](CCCNC(=N)N)NC(=O)[C@H](C)NC(=O)[C@H](C)NC(=O)[C@H](CCC(N)=O)NC(=O)[C@H](CCC(=O)O)NC(=O)[C@H](CC(=O)O)NC(=O)[C@H](CC(C)C)NC(=O)[C@@H](NC(=O)[C@@H](NC(=O)[C@H](C)NC(=O)[C@H](CC(C)C)NC(=O)[C@H](CCC(=O)O)NC(=O)[C@H](CO)NC(=O)[C@@H](NC(=O)[C@H](Cc1ccccc1)NC(=O)[C@@H](NC(=O)CNC(=O)[C@H](CCC(=O)O)NC(=O)C(C)(C)NC(=O)[C@@H](N)Cc1c[nH]cn1)[C@@H](C)O)[C@@H](C)O)[C@@H](C)O)[C@@H](C)CC)[C@@H](C)CC)C(=O)N[C@@H](C)C(=O)N[C@@H](CCC(N)=O)C(=O)N[C@@H](CCCCN)C(=O)N[C@H](C(=O)N[C@H](C(=O)N[C@@H](CC(=O)O)C(=O)O)[C@@H](C)O)[C@@H](C)CC
B7: Compound 20 (peptide)
peptide: H-H[Aib]EGTFTSELATILDEQAARDFIAWLIAYKITD-OH
SMILES: CC[C@H](C)[C@H](NC(=O)[C@H](CC(C)C)NC(=O)[C@H](Cc1c[nH]c2ccccc12)NC(=O)[C@H](C)NC(=O)[C@@H](NC(=O)[C@H](Cc1ccccc1)NC(=O)[C@H](CC(=O)O)NC(=O)[C@H](CCCNC(=N)N)NC(=O)[C@H](C)NC(=O)[C@H](C)NC(=O)[C@H](CCC(N)=O)NC(=O)[C@H](CCC(=O)O)NC(=O)[C@H](CC(=O)O)NC(=O)[C@H](CC(C)C)NC(=O)[C@@H](NC(=O)[C@@H](NC(=O)[C@H](C)NC(=O)[C@H](CC(C)C)NC(=O)[C@H](CCC(=O)O)NC(=O)[C@H](CO)NC(=O)[C@@H](NC(=O)[C@H](Cc1ccccc1)NC(=O)[C@@H](NC(=O)CNC(=O)[C@H](CCC(=O)O)NC(=O)C(C)(C)NC(=O)[C@@H](N)Cc1c[nH]cn1)[C@@H](C)O)[C@@H](C)O)[C@@H](C)O)[C@@H](C)CC)[C@@H](C)CC)C(=O)N[C@@H](C)C(=O)N[C@@H](Cc1ccc(O)cc1)C(=O)N[C@@H](CCCCN)C(=O)N[C@H](C(=O)N[C@H](C(=O)N[C@@H](CC(=O)O)C(=O)O)[C@@H](C)O)[C@@H](C)CC

Assays:
[1] = target: human glucagon-like peptide 1 receptor (GLP-1R) (human, UniProt P43220 24-463); assay: cell-based or functional assay
[2] = target: T1, human GLP-2 receptor (hGLP2-R); assay: cell-based or functional assay

EC50 GLP-1 (nM); cAMP AlphaScreen, HEK293 cells expressing human GLP-1R [1]	EC50 GLP-2 (nM); cAMP AlphaScreen, HEK293 cells expressing human GLP-2R [2]	Binder
0.28 nM	0.042 nM	B1
0.006 nM	0.054 nM	B2
0.12 nM	0.034 nM	B3
0.049 nM	0.11 nM	B4
0.006 nM	0.066 nM	B5
0.005 nM	0.15 nM	B6
0.012 nM	0.26 nM	B7
